Data reported in PMC6582352.

Molecular target: CbAgo (Clostridium butyricum, UniProt P0DYD1 1-748)
Experiment: single-molecule TIRM, immobilized CbAgo

## CCATCTGTCTTA (ssDNA, 5'-phosphate) [siDNA 12 nt (SM013)]
  binding result: binds
